# B1: S2P6 mAb (antibody, V domains shown)
# VH: EVQLVQSGAEVKKPGASVKVSCKASGYTFTSQYMHWVRQAPGQGLEWIGIINPSGVHTSYAQKFQGRVTLTRDTSTSTLYMELSSLRSEDTAVYYCARGSPKGAFDYWGQGTLVTVSS
# VL: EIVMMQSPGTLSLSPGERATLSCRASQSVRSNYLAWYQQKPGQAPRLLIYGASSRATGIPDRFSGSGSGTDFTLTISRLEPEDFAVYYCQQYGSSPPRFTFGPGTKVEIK
# notes: IgG; IGHV1-46/IGKV3-20; source: Expi293F, transfected, purified (Protein A)
# B2: CC40.8 mAb (antibody, V domains shown)
# VH: EVQLLESGGGLVQPGGSLRLSCAASGFTFSSYVMTWARQAPGKGLEWVSAISGTGYTYYADSVKGRFTVSRDNSKNTLFLQMSSLRAEDTAVYYCAITMAPVVWGQGTTVTVSS
# VL: SYELTQPPSVSVSPGQTARITCSGDALPKRYAYWYQQKSGQAPILVIYEDKKRPSGIPERLSGSKSGTVATLTISGAQVEDEADYYCYSTDSSGNHAVFGGGTQLTVL
# notes: IgG; source: Expi293F, transfected, purified (Protein A)
# Tests used:
# [1] = target: SARS-CoV-1 Spike protein, 2 P (SARS-CoV-1, isolate , UniProt P59594, stabilised); assay: ELISA; conditions: both partners purified
# MERS Spike protein, 2 P = MERS Spike protein, 2 P (MERS-CoV, isolate  (entry: …, UniProt K9N5Q8, stabilised)); assay: ELISA; conditions: both partners purified
Binder,binding result [1],"binding result (MERS Spike protein, 2 P)"
B1,binds,binds
B2,binds,

# — paper PMC10689493 (Nature Communications, 2023)
